In article PMC8822698, “Structural and biological insights into Klebsiella pneumoniae surface polysaccharide degradation by a bacteriophage K1 lyase: implications for clinical use” (Journal of Biomedical Science, 2022):

Biological target: the molecule itself
Test: AUC; sedimentation at 20 °C and 20,000 rpm; 25 mM Tris-HCl, 100 mM NaCl, pH 7.5; data analysed with SEDFIT

B1: K1 CPS-specific depolymerase K1 lyase of bacteriophage NTUH-K2044-K1-1 (enzyme, UniProt A0A068Q5Q5 1-651, looked up)
chain: MALIRLVAPERVFSDLASMVAYPNFQVQDKITLLGSAGGDFTFTTTASVVDNGTVFAVPGGYLLRKFVGPAYSSWFSNWTGIVTFMSAPNRHLVVDTVLQATSVLNIKSNSTLEFTDTGRILPDAAVARQVLNITGSAPSVFVPLAADAAAGSKVITVAAGALSAVKGTYLYLRSNKLCDGGPNTYGVKISQIRKVVGVSTSGGVTSIRLDKALHYNYYLSDAAEVGIPTMVENVTLVSPYINEFGYDDLNRFFTSGISANFAADLHIQDGVIIGNKRPGASDIEGRSAIKFNNCVDSTVKGTCFYNIGWYGVEVLGCSEDTEVHDIHAMDVRHAISLNWQSTADGDKWGEPIEFLGVNCEAYSTTQAGFDTHDIGKRVKFVRCVSYDSADDGFQARTNGVEYLNCRAYRAAMDGFASNTGVAFPIYRECLAYDNVRSGFNCSYGGGYVYDCEAHGSQNGVRINGGRVKGGRYTRNSSSHIFVTKDVAETAQTSLEIDGVSMRYDGTGRAVYFHGTVGIDPTLVSMSNNDMTGHGLFWALLSGYTVQPTPPRMSRNLLDDTGIRGVATLVAGEATVNARVRGNFGSVANSFKWVSEVKLTRLTFPSSAGALTVTSVAQNQDVPTPNPDLNSFVIRSSNAADVSQVAWEVYL
notes: K1 CPS-specific depolymerase (K1 lyase) encoded by orf34 of bacteriophage NTUH-K2044-K1-1, GenBank BAP15746, amino acids 1-651; Cloned into pET28a via NdeI and XhoI; This cloning would likely give an N-terminal His6 tag, but that is a surmise; also called K1 CPS depolymerase; polysaccharide depolymerase (PDP); source: E. coli BL21 (DE3), purified (nickel-chelating Sepharose, Superdex-200 gel …)
stoichiometry N: 3
